“And” between values parts separate entries of the source, which are not always exact repeats. Identical values can stand only once.
B1: 3-5 (antibody, V domains shown)
VH: EVQLLESGGGLVQPKGSLKLSCAASGFTFNPYAMNWVRQAPGRGLEWVARIRSKSNNYATYYADSVKDRFTISRDDSQDMLYLQMNNLKTEDTAMYYCVRGREAYYRYDGDYYAMDYWGQGTSVTVSS
VL: DIVMTQAAPSVPVTPGESVSISCRSSKSLLHSNGNTYLYWFLQRPGQSPQLLIYRMSNLASGVPDRFSGSGSGTAFTLRISRVEAEDVGVYYCMQHLEYPFTFGSGTKLEIK
B2: 3-79 (antibody, human IgG1, kappa, V domains shown)
VH: EVQLLESGGGLVQPGGSLRLSCAASGFTFNAYAMNWVRQAPGKGLEWVARIRSKSNDYATYYGDSVKGRFTISRDNSKNTLYLQMNSLRAEDTAVYYCVRGREAYYRYDGGYYAMDVWGQGTTVTVSS
VL: DIVMTQSPLSLPVTPGEPASISCRSSKSLLHSNGNTYLYWFLQKPGQSPQLLIYRVSNLASGVPDRFSGSGSGTDFTLKISRVEAEDVGVYYCMQHREYPFTFGQGTKLEIKR
notes: humanized, human IgG1 kappa
B3: 3-80 (antibody, human IgG1, kappa, V domains shown)
VH: QVQLVQSGPEVVKPGASVKVSCKTSGYTFTEYTIHWVRQAPGQSLEWVGGINPNNGNTRYDQKFQGRVTITRDKSASTAYMELRSLTSEDTAVYYCARVARSSGSGPYAMDYWGQGTTVTVSS
VL: DVVMTQSPLSLPVTLGDQASISCRCSQSLLHTNGDTYLHWYLQRPGQSPRLLIYKVSNRFSGVPDRFSGSGSGTDFTLKISRVEAEDVGVYFCSQSTHVPYTFGGGTKVEIKR
notes: humanized, human IgG1 kappa
B4: 3-82 (antibody, human IgG1, kappa, V domains shown)
VH: QVQLVESGGGVVQPGRSLRLSCAASGFTFSNYRMHWVRQAPGKGLEWIAVIKVKSDNYGANYADSVKGRFTISRDNSKNTLYLQMNSLRAEDTAVYYCSSPTYPGSSGFAYWGQGTLVTVSS
VL: DIQMTQSPSSLSASVGDRVTITCRASQDISNYLNWYQQKPDGTVKLLIYYTSRLHTGVPSRFSGSGSGTDYTLTISNLQQEDIATYFCQQGNKFPPTFGGGTKVEINR
notes: humanized, human IgG1 kappa
B5: Ref #1 (antibody, human IgG1, V domains shown)
VH: EVQLLESGGGLVQPGGSLRLSCAASGFTFSSYGMHWVRQAPGKGLEWVSAINWNGGSTGYADSVKGRFTISRDNSKNTLYLQMNSLRAEDTAVYYCARGHHSGYDGRFFDYWGQGTLVTVSS
VL: QSVLTQPPSVSGAPGQRVTISCTGSSSNIGAGYNVHWYQQLPGTAPKLLIYTNNRRPSGVPDRFSGSKSGTSASLAISGLRSEDEADYYCAAWDASLSGWVFGGGTKLTVL
notes: benchmark from WO 2021/260210; human IgG1, produced in CHO; also called TPP-21360

What was measured:
pm8 = pm8 (human, sulfated tyrosines at Y15, Y16 and Y17); test: ELISA on coated peptide [cont.]
pm8 (human, sulfated tyrosines at Y15, Y16 and Y17), sequence (peptide, as listed by the source): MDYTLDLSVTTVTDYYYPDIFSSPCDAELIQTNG
Summary of the method: (§1)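 In this direct ELISA, CCR8-related peptides coated at 500 ng/mL are probed with anti-CCR8 mAbs (1 μg/mL, also 1/10 dilution; 90 min, room temperature). Read-out is TMB optical density.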

pm3 = pm3 (human, sulfated tyrosine at Y17); test: ELISA on coated peptide [cont.]
pm3 (human, sulfated tyrosine at Y17), sequence (peptide, as listed by the source): as above
Summary of the method: as §1

pm6 = pm6 (human, sulfated tyrosines at Y16 and Y17); test: ELISA on coated peptide [cont.]
pm6 (human, sulfated tyrosines at Y16 and Y17), sequence (peptide, as listed by the source): as above
Summary of the method: as §1

pm5 = pm5 (human, sulfated tyrosines at Y15 and Y17); test: ELISA on coated peptide [cont.]
pm5 (human, sulfated tyrosines at Y15 and Y17), sequence (peptide, as listed by the source): as above
Summary of the method: as §1

human CCR8 [1] = target: T1, human CCR8 (human, UniProt P51685 1-355); test: flow cytometry, hCCR8 transfected CHOK1 cells
T1 construct: the cells are named under assay; also called hCCR8

human CCR8 [2] = target: T1, human CCR8; test: cell-based or functional assay
human CCR8 [3] = target: T1, human CCR8; test: competition flow cytometry on hCCR8 transfected CHO cells; blocked ligand CCL1-AF647 [cont.]
human CCR8 [4] = target: T1, human CCR8; test: cell-based or functional assay; remark: listed apart in the source
pm1 [5] = target: T2, pm1 (human, sulfated tyrosine(s) among Tyr 15, Tyr 16, Tyr 17; marked only by underlining, lost in the text); test: ELISA on coated peptide
T2 sequence (peptide, as listed by the source): as above
Method: (§2) The specific binding properties of antibodies were evaluated by ELISA with coated CCR8 related peptides (500 ng/mL) in carbonate/bicarbonate buffer. Different peptides were used as described in Table 1 (see Example 1). Each anti-CCR8 mAb was tested at 1 μg/mL then diluted at 1/10. After an incubation at room temperature during 90 min, unbound mAbs were removed by washings. […] After washings, 3,3′,5,5′-tetramethylbenzidine (TMB) (Interchim, Montlugon, France) was added for 15 min. Then the optical density (OD) was determined by using a multiplate reader (Tecan, Lyon, France) and correlated with mAb reactivity on the panel of coated peptides.

pm4 [6] = target: T3, pm4 (human, sulfated tyrosine(s) among Tyr 15, Tyr 16, Tyr 17; marked only by underlining, lost in the text); test: ELISA on coated peptide
T3 sequence (peptide, as listed by the source): as above
Method: as §2

human CCR8 [7] = target: T1, human CCR8; test: flow cytometry, human activated T cells
Method: (§3) Briefly, 1·10⁵ cells per well in a 96 well plate were incubated with a dilution of unconjugated anti-CCR8 mAb at 10 μg/mL then diluted at 1/3.33, 4 dilution points (during 30 min at 4° C.). […] To determine EC50 value, 8 concentrations of anti-CCR8 mAb were tested. Unbound antibodies were washed away with PBS (Invitrogen by Thermofisher Scientific, Illkirch-Graffenstaden, France) supplemented by 2% Fetal Bovine Serum (Invitrogen by Thermofisher Scientific, Illkirch-Graffenstaden, France) and 2 mM EDTA (Invitrogen by Thermofisher Scientific, Illkirch-Graffenstaden, France). Subsequently, cells are centrifuged (5 min at 400 g) and bound antibody is detected with F(ab′)₂-Goat anti-Mouse IgG (H+L) Cross-Adsorbed Secondary Antibody, Alexa Fluor 488 (dilution 1/500) (Invitrogen by Thermofisher Scientific, Illkirch-Graffenstaden, France) or with F(ab′)₂-Goat anti-Human IgG Fc Secondary Antibody, PE (Invitrogen by Thermofisher Scientific, Illkirch-Graffenstaden, France) (dilution 1/1000) at 4° C. for 30 min. Detection reagent is washed away and cells are centrifuged (5 min at 400 g) and resuspended in 30 μL PBS. Bound detection antibody is quantified on a MacsQuant16 (Miltenyi, Gladbach, Germany) (B1 or B2 channel, 5000 events per acquisition).
(§4) Binding characteristics of anti-CCR8 mAb cellular reactivity was further investigated by testing their binding to activated T cells.

CCR8 SNAP-tag = CCR8 SNAP-tag (human, UniProt P51685 1-355, SNAP-tag labelled with Lumi4-Terbium); test: cell-based or functional assay
human CCR8 [8] = target: T1, human CCR8; test: flow cytometry, HUT78 cells (native CCR8)
Method: The same staining protocol was applied on human CCR8 transfected CHO cell line versus wild type CHO cell line, cutaneous T cell lymphoma HUT78 cell line and human activated T cell model.
as §3

human CCR8 [9] = target: T1, human CCR8; test: competition HTRF on HEK-293 cells with hCCR8; blocked ligand CCL1-AF647 [cont.]
human CCR8 [10] = target: T1, human CCR8; test: flow cytometry, human activated T cells pre-incubated with 200 nM hCCL1
Method: as §3, §4

human CCR8 [11] = target: T1, human CCR8; test: cell-based or functional assay; remark: listed apart in the source
pm1 [12] = target: T2, pm1; test: ELISA on coated peptide [cont.]
Summary of the method: as §1

pm4 [13] = target: T3, pm4; test: ELISA on coated peptide [cont.]
Summary of the method: as §1

pwt1 = target: T4, pwt1 (human); test: ELISA on coated peptide [cont.]
T4 construct: also called unmodified peptide
T4 sequence (peptide, as listed by the source): as above
Summary of the method: as §1

pm2 = pm2 (human, sulfated tyrosine(s) among Tyr 15, Tyr 16, Tyr 17; marked only by underlining, lost in the text); test: ELISA on coated peptide [cont.]
pm2 (human, sulfated tyrosine(s) among Tyr 15, Tyr 16, Tyr 17; marked only by underlining, lost in the text), sequence (peptide, as listed by the source): as above
Summary of the method: as §1

human CCR8 [14] = target: T1, human CCR8; test: cell-based or functional assay; remark: listed apart in the source
human CCR8 [15] = target: T1, human CCR8; test: flow cytometry, hCCR8 transfected CHOK1 cells; remark: listed apart in the source
Method: as §3
EC50 values were not constantly determined in the same experiments.

human CCR8 [16] = target: T1, human CCR8; test: competition HTRF on HEK-293 cells with hCCR8; blocked ligand CCL1-AF647 [cont.]; remark: listed apart in the source
human CCR8 [17] = target: T1, human CCR8; test: competition flow cytometry on hCCR8 transfected CHO cells; blocked ligand CCL1-AF647

| binding result (pm8) | binding result (pm3) | binding result (pm6) | binding result (pm5) | % positive cells (human CCR8 [1]) [%] | MFI fold change to isotype ctrl (human CCR8 [1]) [fold] | IC50 (Gi2 BRET, pH 6.5) (human CCR8 [2]) | IC50 (Gi2 BRET, pH 7.4) (human CCR8 [2]) | hCCL1 (100 nM) residual response, Protocol #2, mAb 0.08 µg/mL (human CCR8 [4]) [%] | hCCL1 (100 nM) residual response, Protocol #2, mAb 0.4 µg/mL (human CCR8 [4]) [%] | hCCL1 (100 nM) residual response, Protocol #2, mAb 10 µg/mL (human CCR8 [4]) [%] | hCCL1 (100 nM) residual response, Protocol #3, mAb 0.05 µg/mL (human CCR8 [4]) [%] | hCCL1 (100 nM) residual response, Protocol #3, mAb 0.5 µg/mL (human CCR8 [4]) [%] | hCCL1 (100 nM) residual response, Protocol #3, mAb 5 µg/mL (human CCR8 [4]) [%] | % of labelled cells (human CCR8 [7]) [%] | % of internalization at 1 µg/ml mAb (HTRF) (CCR8 SNAP-tag) [%] | % of internalization at 10 µg/ml mAb (HTRF) (CCR8 SNAP-tag) [%] | % of labelled cells (human CCR8 [8]) [%] | IC50 (read off the curve) (human CCR8 [9]) [µg/mL] | % of labelled cells (human CCR8 [10]) [%] | further results | Binder |
| --- | --- | --- | --- | --- | --- | --- | --- | --- | --- | --- | --- | --- | --- | --- | --- | --- | --- | --- | --- | --- | --- |
| binds | binds | binds | binds | 72.8 | 6.32 | 0.021 µg/ml and 0.143 nM | 0.163 nM and 0.024 µg/ml | 81 | 69 | 44 | 77 | 57 | 49 |  |  |  |  |  |  | IC50 (read off the curve) (human CCR8 [3]): ~1 µg/mL | B1 |
| binds | binds | binds | binds |  |  | 0.077 µg/ml and 0.514 nM | 0.068 µg/ml and 0.452 nM | 94 | 77 | 31 | 110 | 76 | 33 | 92 | 139 | 52 | 97 | ~0.2 | 92 | binding result (pm1 [5]): binds; binding result (pm4 [6]): binds | B2 |
| binds | binds | binds | binds |  |  | 0.011 µg/ml and 0.072 nM | 0.022 µg/ml and 0.148 nM | 67 | 55 | 32 | 86 | 60 | 42 |  | 44 | 29 | 96 | ~0.03 |  | ADCC % Max lysis, NK cells Donor 3 (human CCR8 [11]): 15%; ADCC % Max lysis, NK cells Donor 4 (human CCR8 [11]): 16%; ADCC EC50, NK cells Donor 3 (human CCR8 [11]): 0.505 nM; ADCC EC50, NK cells Donor 4 (human CCR8 [11]): 0.573 nM; binding result (pm1 [12]): binds; binding result (pm4 [13]): binds; binding result (pwt1): binds; binding result (pm2): binds | B3 |
|  |  |  |  |  |  | 0.018 µg/ml and 0.12 nM | 0.02 µg/ml and 0.134 nM | 85 | 94 | 60 | 93 | 85 | 62 | 63 |  |  | 93 |  | 54 | Top plateau value (% of hCCL1 100 nM) with 5 µg/mL mAb, Protocol #3 (human CCR8 [14]): 794%; EC50 (human CCR8 [15]): 0.1 nM; IC50 (read off the curve) (human CCR8 [16]): ~0.02 µg/mL; ADCC % Max lysis, NK cells Donor 3 (human CCR8 [11]): 16%; ADCC % Max lysis, NK cells Donor 4 (human CCR8 [11]): 19%; ADCC EC50, NK cells Donor 3 (human CCR8 [11]): 0.349 nM; ADCC EC50, NK cells Donor 4 (human CCR8 [11]): 1.91 nM | B4 |
|  |  |  |  | 75.1 | 8.7 |  |  |  |  |  |  |  |  |  | 126 | 111 |  |  |  | IC50 (read off the curve) (human CCR8 [17]): ~0.7 µg/mL | B5 |

— patent publication US20260234276A1 (DOMAIN THERAPEUTICS, published 2026)
